Assay results from US20210221911A1 (NATIONAL CANCER CENTER JAPAN, published 2021).
Values belong to the binder of their own block, whether it stands above or below them.

Tests used:
[1] = target: T1, recombinant human tissue factor (rhTF), residues 33 to 251 of hTF with C-terminal His6 tag (human, UniProt P13726 33-251); assay: SPR, Biacore T200, rhTF on CM5 chip, single-cycle kinetics, bivalent analyte model
T1 construct: range 33-251; also called rhTF antigen
Description: (§1) SPR measurement was performed by using BiaCore T200 (GE Healthcare). The recombinant human tissue factor antigen (rhTF antigen) was subjected to buffer exchange to 10 mM sodium acetate solution (pH 5.0) and the final protein concentration was adjusted to 2 to 10 μg/mL. Subsequently, contact time was set to 30 seconds and the antigen was immobilized on a CM5 sensor chip (GE Healthcare) according to a basic protocol by using amine coupling. Then, 5 dilution series of the antibody solution were prepared by diluting each ADC solution in DPBS so that the final concentrations thereof became 320 nM, 160 nM, 80 nM, 40 nM, and 20 nM.

[2] = target: T1, recombinant human tissue factor (rhTF), …; assay: SPR, ratio of koff values, reference 1849ADC
Description: as §1

[3] = target: recombinant human tissue factor (rhTF, SEQ ID NO: 13) (human, UniProt P13726 33-251); assay: ELISA screen of hybridomas on solid-phase rhTF
Description: (§2) Recombinant human tissue factor micellized using FCA adjuvant (rhTF, SEQ ID NO: 13) was intraperitoneally administered to Wister rats. After several immunizations, rat antisera were examined by ELISA using a solid phase having rhTFs thereon. A spleen was excised from a rat individual that had shown an increased antibody titer and splenocytes were obtained therefrom. The splenocytes and p3X63 mouse myeloma cells were fused by a PEG technique and cultivated in a HAT culture medium to select hybridoma cells. The hybridoma cells were screened to select those that reacted positively to rhTFs in ELISA and also reacted positively to cells expressing human tissue factor strongly such as an MCF7 cell in flow cytometry analysis. The selected hybridoma cells were cloned by limiting dilution to establish hybridoma cell clones that produced anti-tissue factor antibodies.

[4] = target: T2, human tissue factor on cells expressing it strongly such as MCF7 cells (human, UniProt P13726 33-295); assay: flow cytometry screen of hybridomas on cells expressing TF
T2 construct: whole, on cells; also called TF
Description: as §2

Kd [1]: 35 nM
koff [1]: 0.000825 s⁻¹
kon [1]: 26100 M⁻¹ s⁻¹
koff relative to 1849ADC [2]: 39.3 times
B1: 1084ADC (ADC composed of the monoclonal antibody produced by clone No. 1084 and monomethyl auristatin E) (antibody, V domains shown)
VH: QVQLKESGPGLVQPSQTLSLTCIVSGFSLTNYNVHWVRQPAGAGLEWMGVIWTDGKTDYNSTLQSRLSISRDTSKSQVFLKMNSLQAEDIATYYCARDWDTGFDYWGQGVMVTVSS
VL: DIKMTQSPSSLSASLGERVTISCRASENINNILAWYQKKEDGSVKLLIHYTSNLQSGVPSRFSGSGSGKDYSLTISGLESEDIATYYCQQAYTPYAFGAGTKLELK
modifications: MMAE joined through a maleimide-PEG12-Val-Cit-PABA linker to sulfhydryl groups of the reduced antibody; sites and number not stated
notes: Whole rat monoclonal antibody from a rat-mouse hybridoma, conjugated to MMAE

binding result [3]: binds
binding result [4]: binds
B2: monoclonal antibody produced by clone No. 1084 (antibody, V domains shown)
VH: B1 VH
VL: B1 VL
